Results on one molecule are retold here after PMC9599826, “Selecting Multitarget Peptides for Alzheimer’s Disease” (Biomolecules, 2022).

The assay deals with Recombinant human TLR4/myeloid differentiation factor 2 (MD-2) complex (human) (UniProt O00206).
Recombinant human TLR4/myeloid differentiation factor 2 (MD-2) complex (human), sequence (O00206 24-631, chain 1 of 2): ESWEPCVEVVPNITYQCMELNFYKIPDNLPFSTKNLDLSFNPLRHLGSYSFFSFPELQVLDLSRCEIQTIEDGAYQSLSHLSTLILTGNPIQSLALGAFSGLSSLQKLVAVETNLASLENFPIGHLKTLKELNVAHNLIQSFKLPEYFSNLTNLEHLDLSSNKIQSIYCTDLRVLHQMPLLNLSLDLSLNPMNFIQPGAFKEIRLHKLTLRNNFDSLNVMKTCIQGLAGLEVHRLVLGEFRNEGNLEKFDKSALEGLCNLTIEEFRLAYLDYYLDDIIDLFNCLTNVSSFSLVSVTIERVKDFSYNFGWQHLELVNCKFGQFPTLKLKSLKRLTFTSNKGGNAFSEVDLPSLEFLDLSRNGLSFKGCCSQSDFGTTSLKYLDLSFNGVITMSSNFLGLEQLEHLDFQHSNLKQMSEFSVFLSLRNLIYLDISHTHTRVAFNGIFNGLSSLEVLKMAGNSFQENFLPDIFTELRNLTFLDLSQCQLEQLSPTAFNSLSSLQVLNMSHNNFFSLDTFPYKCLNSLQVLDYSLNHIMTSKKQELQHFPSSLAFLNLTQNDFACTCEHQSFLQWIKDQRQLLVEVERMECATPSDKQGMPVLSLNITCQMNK
Recombinant human TLR4/myeloid differentiation factor 2 (MD-2) complex (human), sequence (Q9Y6Y9 19-160, chain 2 of 2, further chain): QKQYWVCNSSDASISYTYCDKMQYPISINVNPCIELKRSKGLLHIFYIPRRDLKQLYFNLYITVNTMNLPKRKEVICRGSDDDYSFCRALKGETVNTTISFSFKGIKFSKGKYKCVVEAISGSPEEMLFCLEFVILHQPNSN

B1: Recombinant human calcium binding protein S100A9 (natural protein)
chain: MTCKMSQLERNIETIINTFHQYSVKLGHPDTLNQGEFKELVRKDLQNFLKKENKNEKVIEHIMEDLDTNADKQLSFEEFIMLMARLTWASHEKMHEGDEGPGHHHKPGLGEGTP
Regarding B1, the EC50 of TLR4 activation in HEK-Blue hTLR4 reporter cells (SEAP production), S100A9 0.5-50 nM, 24 h came to 0.7 nM.
